# T1: human cell-surface LTαβ complex (LTα complexed with LTβ on the cell surface) (human, UniProt P01374 35-205; Q06643 1-244)
# T1 construct: whole, on cells; also called human LTαβ
# T1 sequence (looked up) 1: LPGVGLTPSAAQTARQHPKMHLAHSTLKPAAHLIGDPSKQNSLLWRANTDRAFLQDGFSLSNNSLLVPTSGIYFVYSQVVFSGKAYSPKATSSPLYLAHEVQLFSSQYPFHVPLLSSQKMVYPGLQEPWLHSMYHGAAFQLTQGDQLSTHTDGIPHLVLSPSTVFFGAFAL
# T1 sequence (looked up) 2: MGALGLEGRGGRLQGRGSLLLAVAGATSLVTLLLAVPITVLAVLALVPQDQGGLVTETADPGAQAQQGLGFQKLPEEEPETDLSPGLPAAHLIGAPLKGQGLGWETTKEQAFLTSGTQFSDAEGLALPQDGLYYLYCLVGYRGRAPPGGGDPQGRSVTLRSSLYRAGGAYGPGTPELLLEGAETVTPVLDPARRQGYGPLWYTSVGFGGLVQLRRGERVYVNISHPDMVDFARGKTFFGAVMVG
# T2: human LTα1β2 heterotrimer (R&D Systems) (human, UniProt P01374 35-205; Q06643 49-244, limits assumed)
# T2 construct: also called LTαβ
# T2 sequence (looked up) 1: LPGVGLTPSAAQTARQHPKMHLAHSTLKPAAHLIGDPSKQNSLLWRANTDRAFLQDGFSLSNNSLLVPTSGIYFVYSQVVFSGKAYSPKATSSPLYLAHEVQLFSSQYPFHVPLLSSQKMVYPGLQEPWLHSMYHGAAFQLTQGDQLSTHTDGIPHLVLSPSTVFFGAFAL
# T2 sequence (looked up) 2: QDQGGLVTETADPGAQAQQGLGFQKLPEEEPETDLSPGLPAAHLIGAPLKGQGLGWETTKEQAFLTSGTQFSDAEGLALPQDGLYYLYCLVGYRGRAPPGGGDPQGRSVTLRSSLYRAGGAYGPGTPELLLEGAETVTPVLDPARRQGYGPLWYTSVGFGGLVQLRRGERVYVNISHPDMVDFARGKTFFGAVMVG
# T3: recombinant human lymphotoxin-α homotrimer (human LTα3) (human, UniProt P01374 35-205)
# T3 sequence (looked up): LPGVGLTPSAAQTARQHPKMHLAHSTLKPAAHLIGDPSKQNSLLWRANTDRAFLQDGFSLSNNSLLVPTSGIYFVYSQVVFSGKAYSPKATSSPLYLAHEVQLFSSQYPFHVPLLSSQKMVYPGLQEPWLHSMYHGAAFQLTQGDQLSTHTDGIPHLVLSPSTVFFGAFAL
# T4: murine cell-surface LTαβ complex on transfected SVT2 cells (murine, UniProt P09225 34-202; P41155 1-306)
# T4 construct: whole, on cells; also called murine LTαβ
# T4 sequence (looked up) 1: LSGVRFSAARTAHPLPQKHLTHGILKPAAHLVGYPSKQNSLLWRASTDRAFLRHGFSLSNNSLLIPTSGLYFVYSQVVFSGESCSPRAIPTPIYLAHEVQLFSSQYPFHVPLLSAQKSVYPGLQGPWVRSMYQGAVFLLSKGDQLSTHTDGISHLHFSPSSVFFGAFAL
# T4 sequence (looked up) 2: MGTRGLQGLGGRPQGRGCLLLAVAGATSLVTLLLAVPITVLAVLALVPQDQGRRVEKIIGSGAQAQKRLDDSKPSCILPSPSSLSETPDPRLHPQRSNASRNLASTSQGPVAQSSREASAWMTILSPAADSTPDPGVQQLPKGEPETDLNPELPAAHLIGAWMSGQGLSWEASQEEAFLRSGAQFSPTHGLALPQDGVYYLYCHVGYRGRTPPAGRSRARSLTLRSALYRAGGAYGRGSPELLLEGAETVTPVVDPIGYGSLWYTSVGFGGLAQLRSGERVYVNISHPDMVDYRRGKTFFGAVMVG
# B1: human TNFRII.huIgG1 (ENBREL®) (Fc fusion, UniProt P20333 23-257, looked up)
# chain: LPAQVAFTPYAPEPGSTCRLREYYDQTAQMCCSKCSPGQHAKVFCTKTSDTVCDSCEDSTYTQLWNWVPECLSCGSRCSSDQVETQACTREQNRICTCRPGWYCALSKQEGCRLCAPLRKCRPGFGVARPGTETSDVVCKPCAPGTFSNTTSSTDICRPHQICNVVAIPGNASMDAVCTSTSPTRSMAPGAVHLPQPVSTRSQHTQPTPEPSTAPSTSFLLPMGPSPPAEGSTGD
# notes: extracellular domain; also called TNFRII.Fc; etanercept; not shown: Fc portion of a human IgG1
# B2: LTbR.muIgG2a (Fc fusion, mouse, UniProt P50284 31-223, looked up)
# receptor-Fc fusion chain: QLVPPYRIENQTCWDQDKEYYEPMHDVCCSRCPPGEFVFAVCSRSQDTVCKTCPHNSYNEHWNHLSTCQLCRPCDIVLGFEEVAPCTSDRKAECRCQPGMSCVYLDNECVHCEEERLVLCQPGTEAEVTDEIMDTDVNCVPCKPGHFQNTSSPRARCQPHTRCEIQGLVEAAPGTSYSDTICKNPPEPGAMLL
# notes: receptor portion of an Fc fusion; also called LTβ-receptor murine IgG2a; muLTβR.IgG2a
# B3: chimeric anti-LTα antibody 2C8 (antibody, human IgG1, kappa, V domains shown)
# VH: EVQLQQSGPELVKPGASVKLSCKASGYTFTSYVIHWVKQKPGQGLEWIGYNNPYNDGTNYNEKFKGKATLTSDKSSSTAYMELSSLTSEDSAVYYCSRPTMLPWFAYWGQGTTLTVSA
# VL: DIVMTQSHKFMSTSVGDRVSITCKASQAVSSAVAWYQQKPGQSPKLQIYSASHRYTGVPDRFTGSGSGTDFTFTISSVQAEDLAVYYCQQHYSTPWTFGGGTKVEIKR
# notes: Murine variable domains on human kappa and human IgG1; also called 2C8 chimera; 2C8.chimera
# B4: LTbR.huIgG1 (Fc fusion, human, UniProt P36941 31-227, looked up)
# receptor-Fc fusion chain: QAVPPYASENQTCRDQEKEYYEPQHRICCSRCPPGTYVSAKCSRIRDTVCATCAENSYNEHWNYLTICQLCRPCDPVMGLEEIAPCTSKRKTQCRCQPGMFCAAWALECTHCELLSDCPPGTEAELKDEVGKGNNHCVPCKAGHFQNTSSPSARCQPHTRCENQGLVEAAPGTAQSDTTCKNPLEPLPPEMSGTMLM
# notes: receptor portion of an Fc fusion; also called LTβ-receptor.huIgG1; human LTβR.huIgG1
# B5: chimeric anti-LTα antibody 3F12 (original chimera) (antibody, human IgG1, kappa, V domains shown)
# VH: QGQLQQSGAELMKPGASVKISCKATGYTFSSYWIEWVKQRPGHGLEWIGEISPGSGSTNYNEEFKGKATFTADKSSNTAYIQLSSLSTSEDSAVYYCADGYHGYWGQGTTLTVSS
# VL: DIVMSQSPSSLAVSVGEKVTMSCKSSQSLLYSTNQKNFLAWYQQKPGQSPKLLIYWASTRDSGVPDRFTGSGSGTDFTLTISSVKAEDLAVYYCQQYYSYPRTFGGGTKLEIKR
# notes: Murine variable domains on human C kappa and IgG1; also called 3F12 chimera; chimeric 3F12
# B6: humanized 3F12.v5 (antibody, IgG1, V domains shown)
# VH: EVQLVESGGGLVQPGGSLRLSCAASGYTFSSYWIEWVRQAPGKGLEWVGEISPGSGSTNYNEEFKGRATFSADNSKNTAYLQMNSLRAEDTAVYYCADGYHGYWGQGTLVTVSS
# VL: DIQMTQSPSSLSASVGDRVTITCKSSQSLLYSTNQKNFLAWYQQKPGKAPKLLIYWASTRDSGVPSRFSGSGSGTDFTLTISSLQPEDFATYYCQQYYSYPRTFGQGTKVEIKR
# notes: Human kappa / IgG1 constant domains (vectors of humanized 2G7 version 5); also called version 5
# B7: humanized 2C8.v16 (antibody, human IgG1, V domains shown)
# VH: EVQLVESGGGLVQPGGSLRLSCAASGYTFTSYVIHWVRQAPGKGLEWVGYNNPYNDGTNYNEKFKGRFTISSDKSKNTAYLQMNSLRAEDTAVYYCSRPTMLPWFAYWGQGTLVTVSS
# VL: DIQMTQSPSSLSASVGDRVTITCRASQAVSSAVAWYQQKPGKAPKLLIYSASHRYTGVPSRFSGSGSGTDFTLTISSLQPEDFATYYCQESYSTPWTFGQGTKVEIKR
# notes: Heavy chain: v12 variable domain on human IgG1; copies: 2 + 2
# B8: phage-displayed 2C8 Fab clone A8 (Fab, V domains shown)
# VH: EVQLVESGGGLVQPGGSLRLSCAASGYTFTSYVIHWVRQAPGKGLEWVGYNNPYNDGTNYNEKFKGRATISSDKSKNTAYLQMNSLRAEDTAVYYCSRPTMLPWFAYWGQGTLVTVSS
# VL: DIQMTQSPSSLSASVGDRVTITCRASQAVSSAVAWYQQKPGKAPKLQIYSASHRYTGVPSRFSGSGSGTDFTLTISSLQPEDFATYYCQESYSTPWTFGQGTKVEIKR
# notes: All phagemids kept the wild-type CDR-H3; also called 2C8 clone A8
# Key:
# [1] = molecular target: T1, human cell-surface LTαβ complex (LTα …); assay: FACS titration on human Th2 cells, Alexa Fluor 647 conjugates
# Protocol: (§1) Cells were washed, aspirated, and re-suspended in PBS with 2% FBS. Cells were analyzed on a FACSCALIBUR™ (dual laser) using […]™ software, and results analyzed on a FLOWJO™ analyzer (Treestar).
# [2] = molecular target: T2, human LTα1β2 heterotrimer (R&D Systems); assay: ELISA on coated LTα1β2
# [3] = molecular target: T3, recombinant human lymphotoxin-α …; assay: cell-based or functional assay
# [4] = molecular target: T4, murine cell-surface LTαβ complex on …; assay: FACS on SVT2 cells stably expressing murine LTαβ, reagents conjugated to ALEXA-647
# Protocol: For murine LTαβ, SVT2 cells were transfected with full-length murine LTα and murine LTαβ (murine LTα sequence GenBank Ref NM_{—}010735; murine LTβ sequence GenBank Ref NM_{—}008518) to generate stable murine LTαβ-expressing cell lines. […] Cells were washed, aspirated, and resuspended in PBS with 2% FBS. Cells were analyzed on a FACSCALIBUR™ (dual laser) using […]™ software, and results analyzed on a FLOWJO™ analyzer (Treestar).
# [5] = molecular target: T3, recombinant human lymphotoxin-α …; assay: BIACORE (rhLTα)
# [6] = molecular target: T3, recombinant human lymphotoxin-α …; assay: direct ELISA on plate-coated human LTα3 (1 µg/ml)
# Protocol: Microtiter wells were coated with 1 μg/ml human LTα3 in 50 mM carbonate buffer solution (100 μl/well) overnight. The unabsorbed solution was decanted from the wells. Wells were blocked with 150 μL PBS containing 5 mg/ml bovine serum albumin (PBS-BSA) for 1-2 hour. […] 100 μL of biotin-labeled rat anti-mouse IgG in PBS-BSA buffer was then added to each well and incubated for one hour. The plate was then washed with PBS/0.05% TWEEN™-20 surfactant, and streptavidin-horseradish peroxidase (SA-HRP) was added for 30 minutes to each well. Each well was washed with PBS/0.05% TWEEN™-20 surfactant, and bound HRP was measured with a solution of tetramethylbenzidine (TMB)/H₂O₂. After 15 minutes, the reaction was quenched by the addition of 100 μl of 1M phosphoric acid. The absorbance at 450 nm was read with a reference wavelength of 650 nm.
# [7] = molecular target: T3, recombinant human lymphotoxin-α …; assay: plate ELISA on coated human LTα
# [8] = molecular target: T3, recombinant human lymphotoxin-α …; assay: blocking ELISA: biotinylated human LTα3 preincubated with the antibody, then captured on coated TNFRII.huIgG1 (m10)
# Protocol: The unabsorbed solution was aspirated from the wells. Biotinylated LTα3 (murine or human) was captured and detected with streptavidin-horse radish peroxidase (HRP). […] Each well was washed with PBS/0.05% TWEEN™ 20 surfactant, and bound HRP was measured with a solution of tetramethylbenzidine (TMB)/H₂O₂. After 15 minutes, the reaction was quenched by the addition of 100 μl of 1M phosphoric acid to each well. The absorbance at 450 nm was read with a reference wavelength of 650 nm.
# [9] = molecular target: T1, human cell-surface LTαβ complex (LTα …); assay: FACS titration on human Th1 cells, Alexa Fluor 647 conjugates
# Protocol: as §1
# [10] = molecular target: T3, recombinant human lymphotoxin-α …; assay: plate ELISA on coated LTα
# [11] = molecular target: T3, recombinant human lymphotoxin-α …; assay: plate ELISA on coated LTα; remark: listed apart in the source
# [12] = molecular target: T3, recombinant human lymphotoxin-α …; assay: plate ELISA, IgG
# [13] = molecular target: T3, recombinant human lymphotoxin-α …; assay: phage competitive ELISA, LTα (0-50 nM) in solution against plate-coated LTα
# Protocol: (§2) For the first round, phage were captured for 2 hours against 2 μg/ml plate-coated LTα at ambient temperature. The second and third rounds of selection were performed at ambient temperature by capturing phage for 30 minutes with 2 nM biotinylated LTα in solution phase, followed by capture on neutravidin-coated plates. The highest affinity clone was identified using a competitive ELISA. Constant concentrations of phage clones (normalized by solid-phase LTα binding OD) were incubated with increasing concentrations of LTα (0-50 nM) in solution before capture on a plate coated with 2 μg/ml LTα.
# [14] = molecular target: T3, recombinant human lymphotoxin-α …; assay: phage competitive ELISA: rhLTα in solution competes with plate-coated LTα
# Protocol: as §2
binder,measurement,setting,value
B1,binding result,[1],no binding (tested: 100 ug/ml)
same,binding result,[2],no binding
same,"IC50, blocking of human LT-induced cytotoxicity",[3],0.83 nM
B2,binding result,[4],binds
B3,Kd,[5],0.6 nM
same,EC50 (read off the curve),[6],~0.1 nM
same,ELISA IC50 ratio,[7],1 ratio
same,IC50 (read off the curve),[8],~5 nM
B4,EC50 (read off the curve),[9],~0.05 µg/mL
B5,EC50 (read off the curve),[6],~0.3 nM
same,Relative binding,[10],1 relative to the original chimera
same,IC50 (read off the curve),[8],~20 nM
B6,fold weaker binding than the chimera,[11],~5 fold
B7,fold improvement in binding compared to 2C8.v2,[12],2 fold
same,ELISA IC50 ratio,[7],0.6 ratio
B8,fold improvement in competition over wild-type 2C8.v2,[13],10 fold
same,IC50,[14],0.32 nM
